Measured values reported in patent US20190062438A1 (CSL, published 2019).
Where “and” joins values, the source holds several entries; their conditions need not be identical. Identical values can stand only once.

What was measured:
Assay in all cases: SPR, steady state, Fab over captured mutant
shCD131 H367A = target: T1, shCD131 H367A (human, UniProt P32927 17-438)
T1 construct: C-terminal 6xHis
T1 sequence: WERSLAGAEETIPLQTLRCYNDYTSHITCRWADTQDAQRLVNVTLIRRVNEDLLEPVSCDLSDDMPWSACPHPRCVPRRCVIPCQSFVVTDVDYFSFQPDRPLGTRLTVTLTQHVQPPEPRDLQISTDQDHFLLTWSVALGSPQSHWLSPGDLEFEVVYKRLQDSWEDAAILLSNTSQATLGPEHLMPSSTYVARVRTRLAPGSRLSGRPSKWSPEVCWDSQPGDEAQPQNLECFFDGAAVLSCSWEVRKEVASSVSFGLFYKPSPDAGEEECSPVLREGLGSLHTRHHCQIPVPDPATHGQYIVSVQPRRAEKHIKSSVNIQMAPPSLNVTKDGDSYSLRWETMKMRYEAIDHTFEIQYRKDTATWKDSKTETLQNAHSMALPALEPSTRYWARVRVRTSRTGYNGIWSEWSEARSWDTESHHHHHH
Experimental: (§1) For some analysis purified Fab was injected over each flow cell for 3 minutes and dissociation was monitored for a further 10 minutes. Regeneration of the surface was performed after each cycle with a 40 second injection of 25 mM glycine, pH 2.0. The analysis was performed with Fabs at several concentrations between 100 and 0.31 nM, with each concentration analyzed twice and in random order. The analysis was performed at a flow rate of 30 μl/min in HBS-EP buffer (10 mM Hepes, 150 mM NaCl, 3 mM EDTA, 0.005% Tween 20, pH 7.4) at 37° C. Responses from spots 2 and 4 of each flow cell, (in which shβc was not captured, but otherwise treated identically), were subtracted from those of spots 1 and 5 respectively to produce reference subtracted data. Reference subtracted responses from a blank injection comprising buffer alone were subtracted from the resultant sensorgrams to produce double referenced data suitable for kinetic analysis. Double-referenced sensorgrams were fitted using non-linear regression to a model describing 1:1 kinetics, including a term for mass transport limitation. The Rₘₐₓ value was fitted locally to account for slight deviations in the level of sCD131 captured, with association rate (kₐ), dissociation rate (kd) and equilibrium dissociation constant (KD) fitted globally.
(§2) Mapping of the shCD131 epitope was performed by measurement of the affinity of Fabs for various alanine point mutants of shCD131 essentially as described above, with the following exceptions. Each shCD131 mutant was captured for 120 seconds at concentrations between 1 and 5 μg/ml. For kinetic analysis, purified recombinant Fabs were injected for 2 minutes, and dissociation was monitored for a further 2 minutes. […] Fab concentrations ranged from 16 μM to 3.9 nM in two-fold dilutions. The assays were conducted at 25° C. All sensorgrams were reference subtracted as described above. For determination of steady-state affinity (KD only), the response at the end of the binding phase was used to fit the data to a single-site binding model. Kinetic parameters were determined as described above.

shCD131 T40A = target: T2, shCD131 T40A (human, UniProt P32927 17-438)
T2 construct: C-terminal 6xHis
T2 sequence: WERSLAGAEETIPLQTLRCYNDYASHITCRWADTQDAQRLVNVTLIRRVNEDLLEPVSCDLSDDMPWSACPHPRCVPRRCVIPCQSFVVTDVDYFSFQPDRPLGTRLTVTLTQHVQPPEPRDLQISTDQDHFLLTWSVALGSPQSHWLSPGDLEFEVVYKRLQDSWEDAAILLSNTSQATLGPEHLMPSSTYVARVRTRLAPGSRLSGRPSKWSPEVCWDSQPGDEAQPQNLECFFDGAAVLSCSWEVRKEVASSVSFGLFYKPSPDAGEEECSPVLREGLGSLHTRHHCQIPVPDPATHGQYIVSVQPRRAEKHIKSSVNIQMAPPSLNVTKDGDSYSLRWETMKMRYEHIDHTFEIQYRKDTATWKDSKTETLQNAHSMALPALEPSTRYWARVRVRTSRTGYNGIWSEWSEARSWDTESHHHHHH
Experimental: as §1, §2

shCD131 G423A = target: T3, shCD131 G423A (human, UniProt P32927 17-438)
T3 construct: C-terminal 6xHis
T3 sequence: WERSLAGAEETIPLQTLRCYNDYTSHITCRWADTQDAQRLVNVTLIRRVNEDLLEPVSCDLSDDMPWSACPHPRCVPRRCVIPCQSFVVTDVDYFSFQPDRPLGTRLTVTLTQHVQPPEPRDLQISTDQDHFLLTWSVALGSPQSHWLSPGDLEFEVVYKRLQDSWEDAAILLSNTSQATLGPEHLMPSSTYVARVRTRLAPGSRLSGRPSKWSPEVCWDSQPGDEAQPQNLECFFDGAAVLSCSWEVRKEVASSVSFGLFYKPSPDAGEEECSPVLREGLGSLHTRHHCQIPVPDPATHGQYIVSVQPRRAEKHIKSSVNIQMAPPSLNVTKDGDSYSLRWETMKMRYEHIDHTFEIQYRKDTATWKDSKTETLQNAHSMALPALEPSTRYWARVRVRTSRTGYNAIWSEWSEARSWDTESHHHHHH
Experimental: as §1, §2

B1: 9A2 Fab (Fab, V domains shown)
VH: EVQLLESGGGLVQPGGSLRLSCAASGFTFSHYHMLWVRQAPGKGLEWVSSIRSSGGFTYYADSVKGRFTISRDNSKNTLYLQMNSLRAEDTAVYYCARFYDSFFDIWGQGTMVTVSS
VL: DIQMTQSPSSVSASVGDRVTITCRASQGISSWLAWYQQKPGKAPKLLIYAASSLQSGVPSRFSGSGSGTDFTLTISSLQPEDFATYYCQQANSFPITFGQGTRLEIKR
notes: also called recombinant Fab of 9A2
Kd (shCD131 H367A): 10.3 µM and 10.8 µM
Kd (shCD131 T40A): 0.236 µM
Kd (shCD131 G423A): 0.197 µM
